One data set concerns the target Asp85 (UniProt position 98, WARYADWLFTT). Particulars: not stated (counterion of the protonated Schiff base); cited from earlier work.
The test system of the next data set is Asp100. Particulars: not stated (counterion of the protonated Schiff base); cited from earlier work.
For data set [1], the target named is Asp95 (UniProt position 95, YARYADWLFTT). Particulars: not stated (counterion of the protonated Schiff base); cited from earlier work.
In data set [2] the target is Asp95 (UniProt position 95, FYRYADWLLTV). The note with it: not stated (counterion of the protonated Schiff base); cited from earlier work.
In the next data set the target is Asp81 (UniProt position 81, YARYIDWVLTT). Particulars: not stated (counterion of the protonated Schiff base); cited from earlier work.
Data set [3] addresses T1, OmR2 (O. marina rhodopsin-2) (Oxyrrhis marina, UniProt A0A0B4P477).
T1 construct: full-length, codon-optimized synthetic gene, C-terminal His6 tag kept; expressed in E. coli BL21(DE3) (pET21a) and in HEK293T; purified in DDM micelles
The data set can be described thus: absorption spectroscopy; HPLC of retinal oximes. Type of data set: binding. Particulars: covalent; protonated Schiff base (Lys213); 50 mM Tris-HCl pH 7.0, 1 M NaCl, 0.05% DDM.

The test system of the next data set is Asp88. The data set can be described thus: UV-vis. Particulars: room temperature (approx. 25 °C), 1 M NaCl, Buffer A: 50 mM Tris-HCl, 0.05% (w/v) DDM, pH adjusted by adding HCl, Unphotolysed state under room light, all-trans retinal bound with protonated Schiff base, folded (reversibility of the spectral changes was checked).
For another data set, the target named is Asp97 (UniProt position 97, VFRYIDWLLTV). The note with it: not stated (counterion of the protonated Schiff base); cited from earlier work.

This is an account of results in paper PMC8292405, “Functional expression of the eukaryotic proton pump rhodopsin OmR2 in Escherichia coli and its photochemical characterization” (Scientific Reports, 2021).

T1 sequence (A0A0B4P477 entry or part of it): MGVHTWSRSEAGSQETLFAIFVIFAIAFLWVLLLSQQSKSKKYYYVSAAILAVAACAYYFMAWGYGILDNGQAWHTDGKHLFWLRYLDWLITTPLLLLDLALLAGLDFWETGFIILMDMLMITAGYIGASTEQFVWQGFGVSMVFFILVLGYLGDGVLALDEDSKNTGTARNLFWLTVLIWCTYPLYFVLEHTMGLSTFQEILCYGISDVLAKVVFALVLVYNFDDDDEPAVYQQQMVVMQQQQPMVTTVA

Broadly, the pKa is the pH at which an ionisable group is half protonated. Take “Bacteriorhodopsin (BR) (Halobacterium salinarum)”: the pKa with Asp85 is listed as 2.6. For the molecule “Oxyrrhis marina rhodopsin-1 (OmR1, OR1) (Oxyrrhis marina)”, the pKa in the data set on Asp100 is recorded as 4. On to “Archaerhodopsin-3 (AR3) (Halorubrum sodomense)”, for which the pKa with Asp95 [1] was 3.1. With “Thermophilic rhodopsin (TR) (Thermus thermophilus)”, the pKa with Asp95 [2] is reported as 3.4.

For the molecule “Acetabularia rhodopsin II (ARII) (Acetabularia acetabulum)”, the pKa with Asp81 is reported as 2.6. On to `CC1=C(/C=C/C(C)=C/C=C/C(C)=C/C=O)C(C)(C)CCC1` [all-trans retinal], for which the “absorption spectroscopy; HPLC of retinal oximes” value in data set [3] is recorded as “This indicates that OmR2 possesses all-trans retinal regardless of the light environment”. As to “Oxyrrhis marina rhodopsin-2 (OmR2) (Oxyrrhis marina)”, the pKa in the data set on Asp88 was 3.0 ± 0.04.

For the molecule “Proteorhodopsin (PR, green-absorbing) (uncultured marine gamma-proteobacterium (EBAC31A08))”, the pKa with Asp97 was 7.5.
